The results in this text go back to patent US20210340276A1 (Astellas, published 2021).

This assay addresses T1, human cancer-specific MUC1 (on breast cancer cell line T-47D cells) (human, UniProt P15941 24-1255, cancer-specific incomplete O-glycosylation (T, Tn, 2,3ST) of the tandem repeat, as described in the background).
T1 construct: whole, on cells; cells fixed in formalin; also called Mucin 1
As to the kind of experiment: Cell ELISA on formalin-fixed T-47D cells, HRP anti-human Igκ detection, luminescence; reference 1B2 Fab. The procedure:
Specifically, breast cancer cell line T-47D cells (purchasable from ATCC; HTB-133) expressing human cancer-specific MUC1 were inoculated at 0.75×10⁴ cells per well to a 96-well ELISA plate coated with collagen I, and cultured overnight. […] Then, a horseradish peroxidase (HRP)-labeled goat anti-human Igκ antibody (Southern Biotechnology Associates, Inc.) was reacted as a secondary antibody. ECL Prime Western Blotting Detection Reagent (GE Healthcare Japan Corp.) was added thereto for luminescence, and the degree of the luminescence was examined.

B1: P10-1 Fab (Fab, V domains shown)
VH: QVQLVQSGAEVKKPGASVKVSCKASGYTFTNYGLSWVRQAPGQGLEWMGENHPGSGIIYHNEKFRGRVTLTADRSTSTAYMELSSLRSEDTAVYYCARSSGTRGFAYWGQGTLVTVSS
VL: DVVMTQTPLSLSVTPGQPASISCRSSQSIVHSNGNTYLEWYLQKPGQSPQLLIYRVSNRFSGVPDRFSGSGSGTDFTLKISRVEAEDVGVYYCFQGSHGPWTFGQGTKLEIKR
notes: expressed in Expi293F cells, purified with KappaSelect; also called anti-human MUC1 antibody Fab fragment P10-1
On to B1, for which the “fold binding activity compared to 1B2 Fab” value is at least 10 times.

B2: P10-2 Fab (Fab, V domains shown)
VH: QVQLVQSGAEVKKPGASVKVSCKASGYTFTNYGLSWVRQAPGQGLEWMGENHPGSGIIYHNEKFRGRVTLTADRSTSTAYMELSSLRSEDTAVYYCARSSGTRGFDYWGQGTLVTVSS
VL: DVVMTQTPLSLSVTPGQPASISCRSSQSIVHSNGNTYLEWYLQKPGQSPQLLIYRVSNRFSGVPDRFSGSGSGTDFTLKISRVEAEDVGVYYCFQGSHGPWTFGQGTKLEIKR
modifications: heavy chain N-terminal glutamine modified into pyroglutamic acid in a great majority of purified antibodies (Example 2)
notes: expressed in Expi293F cells, purified with KappaSelect; also called anti-human MUC1 antibody Fab fragment P10-2
As to B2, the “fold binding activity compared to 1B2 Fab” value is at least 10 times.
